Data taken from US20100080806A1 (INSTITUTE OF BASIC MEDICAL SCIENCES OF CHINESE ACADEMY OF …, published 2010).

Experiments:
[1] = molecular target: T1, recombinant human DR4 extracellular domain protein expressed in E. coli (human, UniProt O00220 24-239); test: ELISA, plate coated with recombinant DR4 extracellular domain
T1 construct: extracellular domain; also called death receptor 4; TRAIL-R1
Protocol: (§1) ELISA plates (Costar, USA) were coated with recombinant human DR4 or DR5 extracellular domain protein expressed in E. coli over night, blocked with 5% nonfat milk at room temperature for two hours. […] The absorbency at 492 nm was measured on a microtiter reader of enzyme-labelled machine, Wellscan MK3 (Thermo Labsystems, Finland).

[2] = molecular target: T2, recombinant human DR5 extracellular domain protein expressed in E. coli (human, UniProt O14763 56-210); test: ELISA on plate-coated recombinant DR5 extracellular domain, single-site fit (GraphPad)
T2 construct: extracellular domain; also called death receptor 5; TRAIL-R2
Protocol: as §1

T1 sequence (O00220 24-239): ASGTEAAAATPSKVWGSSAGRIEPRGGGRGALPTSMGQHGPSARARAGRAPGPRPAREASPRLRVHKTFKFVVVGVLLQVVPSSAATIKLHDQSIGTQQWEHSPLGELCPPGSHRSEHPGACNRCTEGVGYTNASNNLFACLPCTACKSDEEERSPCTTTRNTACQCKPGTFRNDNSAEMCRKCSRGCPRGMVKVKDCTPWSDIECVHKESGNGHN

B1: monoclonal antibody AD5-10 against human TRAIL receptor DR5 (antibody, IgG3, V domains shown)
VH: QIQLVQSGPELKKPGETVKISCKASGYTFTDFSMNWVKQAPGKGLKWMGWINTETGEPTYADDFKGRFALSMETSASTAYLQINNLKNEDTATYFCVRIDYWGQGTTLTVSS
VL: DVVMTQTPLSLPVSLGDQASISCRSSQSLVHSNGNTYLHWYLQKPGQSPKLLIYKVSNRFSGVPDRFSGSGSGTDFTLKISRVEAEDLGVYFCFQSTHVPHTFGGGTKLEIKR
notes: Murine hybridoma antibody (CGMCC 1192), subtype IgG3 kappa; also called anti-human TRAIL receptor DR5 mAb; mAb DR5
[1]
  binding result: no binding
[2]
  Kd: 0.3 nM
